{"source": "patent US20230159643A1", "about": "(H LUNDBECK A S, published 2023)", "binders": {"B1": {"name": "1320 (antibody, V domains shown)", "VH": "not shown", "VL": "EIVLTQSPATLSLSPGERATLSCRASQSVSSYLAWYQQRPGQAPRLLIYDASNRATGIPARFSGSGSGTDFTLSISSLEPEDFAVYYCQQRTNWSITFGQGTRLEIK", "notes": "also called IgG1-6003-1320; Antibody 1320"}}, "biological_target": "T1, Sortilin SORTECDBAP_hB12390 (human/tetraodon chimera)", "T1 construct": "Shuffle construct", "T1 chain": "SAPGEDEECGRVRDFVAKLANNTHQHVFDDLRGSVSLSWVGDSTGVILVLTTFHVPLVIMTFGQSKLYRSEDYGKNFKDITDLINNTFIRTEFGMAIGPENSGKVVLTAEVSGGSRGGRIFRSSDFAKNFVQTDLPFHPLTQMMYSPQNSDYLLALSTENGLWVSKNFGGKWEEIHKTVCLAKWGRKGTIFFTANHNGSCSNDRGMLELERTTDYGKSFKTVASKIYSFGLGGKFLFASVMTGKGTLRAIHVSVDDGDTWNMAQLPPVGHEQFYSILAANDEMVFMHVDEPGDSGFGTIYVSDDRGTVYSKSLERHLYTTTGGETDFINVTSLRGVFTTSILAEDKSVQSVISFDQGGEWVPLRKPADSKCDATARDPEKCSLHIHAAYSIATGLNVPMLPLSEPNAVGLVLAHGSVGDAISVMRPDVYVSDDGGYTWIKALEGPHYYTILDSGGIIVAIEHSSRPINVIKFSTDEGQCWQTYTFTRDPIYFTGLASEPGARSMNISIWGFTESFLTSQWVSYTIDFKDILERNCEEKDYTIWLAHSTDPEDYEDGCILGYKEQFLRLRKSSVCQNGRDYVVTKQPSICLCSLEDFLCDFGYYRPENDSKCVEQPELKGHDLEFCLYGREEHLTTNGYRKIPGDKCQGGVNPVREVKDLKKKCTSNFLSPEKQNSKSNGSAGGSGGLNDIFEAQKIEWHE", "assay": "BLI Octet 384RED, antibody on Protein A sensor, Sortilin construct in solution", "description": "Binding kinetics of anti-Sortilin HuMab antibodies to Sortilin were determined using Octet 384RED (Fortebio, Menlo Park, USA). HuMab solutions of 2 μg/ml were made by dilution in sample diluent (ForteBio, art. No. 18-5028). Prot A sensors (ForteBio, art. no. 18-0004) were prewetted with kinetics buffer (1:10 sample diluent in PBS) for at least 600 seconds. Subsequently sensors were immobilized with HuMab solution for 600 seconds. A baseline response was obtained by dipping in kinetics buffer for 120 seconds. Association of SORTECD constructs was performed during a 1000 seconds incubation. This was followed by dissociation in kinetics buffer for 100 seconds. After dissociation, sensors were regenerated (10 mM Glycine pH 1.0) and neutralized (kinetics buffer) 3 times for 5 seconds. […] A molecular weight of 76.8 kDA was used for SORTECDHis. Data was fitted with ForteBio Analysis 6.4 software, using a global full fit.", "data": [{"binder": "B1", "values": [{"measurement": "EC50", "result": 0.0123, "unit": "µg/mL"}]}]}
